Reference: paper PMC12440816

How the values were obtained:
[1] = molecular target: Luc-MCM/Cdt1 (luciferase-tagged MCM in complex with Cdt1) [Saccharomyces cerevisiae]; assay: MCM recruitment assay (DNA pulldown, luciferase-tagged MCM) in ATPγS; conditions: ARS1 origin, read off a plot
[2] = molecular target: MCM replicative helicase hexamer (Mcm2–7), loaded on DNA (Saccharomyces cerevisiae) (UniProt P29469)
[3] = molecular target: MCM replicative helicase hexamer (Mcm2–7), loaded on DNA (Saccharomyces cerevisiae) (UniProt P29469); remark: listed apart in the source

response ([1]; + CDK (Orc2 phosphorylated)) [fmol]	response ([1]; - CDK (ORC not phosphorylated)) [fmol]	high-salt-resistant luciferase-tagged MCM on the 300 bp[lacO] template, with IPTG against without IPTG, after free MCM–Cdt1 and Cdc6 were washed off [2] [fold]	high-salt-resistant luciferase-tagged MCM on the 300 bp[lacO] template at 30 min, with IPTG against without IPTG (SHs loaded by Orc2∆N behind a LacI roadblock) [3] [fold]	Substance
230	250			origin recognition complex (ORC), wild type mutant Orc6:S106A; Orc6:S116A; Orc6:S123A; Orc6:T146A [Saccharomyces cerevisiae] / Luc-MCM/Cdt1 (luciferase-tagged MCM in complex with Cdt1) [Saccharomyces cerevisiae] chain 6 S106A, chain 6 S116A, chain 6 S123A, chain 6 T146A
		3.3	3.8	MCM replicative helicase hexamer (Mcm2–7), loaded on DNA, P29469 1-868; P24279 1-971; P30665 1-933; P29496 1-775; P53091 1-1017; P38132 1-845
